Results from the supplement of paper PMC7877785.
± gives the uncertainty stated by the source.

Assay: self-splicing fitness, log relative to wild type (ln ratio); higher = more splicing; Tetrahymena group I intron in knt gene, E. coli kanamycin selection, DiMSum; sequences stand for … in CUCUCU…GGAGGGAAAAGUUAUCAGGCAUGCACCUGGUAGCUAGUCUUUAAACCAAUAGAUUGCAUCGGUUUAAAAGGCAAGACCGUCAAAUUGCGGGAAAGGGGUCAACAGCCGUUCAGUACCAAGUCUCAGGGGAAACUUUGAGAUGGCCUUGCAAAGGGUAUGGUAAUAAGCUGACGGACAUGGUCCUAACCACGCAGCCAAGUCCUAAGUCAACAGAUCUUCUGUUGAUAUGGAUGCAGUUCACAGACUAAAUGUCGGUCGGGGAAGAUGUAUUCUUCUCAUAAGAUAUAGUCGGACCUCUCCUUAAUGGGAGCUAGCGGAUGAAGUGAUGCAACACUGGAGCCGCUGGGAACUAAUUUGUAUGCGAAAGUAUAUUGAUUAGUUUUGGAGUACUCGUGGUCG
In short: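 Colonies from six replicate transformations of E. coli BL21(DE3) were pooled and amplicon-sequenced on an Illumina HiSeq 2500. The library placed an intron with all eight P1ex-region nucleotides randomised inside the knt kanamycin-resistance gene on pET-22b(+), and cells grew overnight at 37°C or 30°C on LB agar with or without 25 μg/mL kanamycin (plus 100 μg/mL carbenicillin, 50 μM IPTG, 0.2% rhamnose). Fitness is the DiMSum error-weighted combination of wild-type-normalised replicate fold changes, kanamycin versus none.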

Row | Sequence | self-splicing fitness (ln) (30 °C) | self-splicing fitness (ln) (37 °C)
1 | UAGGAGCAAUAUUACGGGUA | -1.45 ± 0.17 | -2.13 ± 0.21
2 | UAGGAGCAAUAUUACGUGGA | -2.34 ± 0.38 | -1.43 ± 0.22
3 | UAGGAGCAAUAUUACGUUAU | -4.64 ± 0.22 | -2.85 ± 0.15
4 | UAGGAGCAAUAUUACGUUGA | -2.46 ± 0.18 | -1.19 ± 0.17
5 | UAGUAGCAAUAUUACGACCG | -0.133 ± 0.16 | 0.109 ± 0.16
6 | UAGUAGCAAUAUUACGACGG | -1.21 ± 0.16 | -0.306 ± 0.21
7 | UAGUAGCAAUAUUACGAGAU | -2.69 ± 0.13 | -2.32 ± 0.19
8 | UAGUAGCAAUAUUACGAGCA | -1.07 ± 0.12 | -0.0288 ± 0.12
9 | UAGUAGCAAUAUUACGAGGC | -3.45 ± 0.32 | 
10 | UAGUAGCAAUAUUACGAGUG | -1.66 ± 0.081 | -0.549 ± 0.083
11 | UAGUAGCAAUAUUACGAUAG | -1.95 ± 0.35 | 
12 | UAGUAGCAAUAUUACGAUGC | -4.61 ± 0.34 | -2.56 ± 0.2
13 | UAGUAGCAAUAUUACGAUUA | -0.381 ± 0.099 | 0.0431 ± 0.098
14 | UAGUAGCAAUAUUACGCACC |  | -0.0165 ± 0.38
15 | UAGUAGCAAUAUUACGCCGA | -1.81 ± 0.23 | -0.922 ± 0.2
16 | UAGUAGCAAUAUUACGCCUC |  | -1.66 ± 0.31
17 | UAGUAGCAAUAUUACGCGCA | -0.614 ± 0.1 | 0.274 ± 0.11
18 | UAGUAGCAAUAUUACGCUUU | -2.3 ± 0.25 | -2.18 ± 0.18
19 | UAGUAGCAAUAUUACGGACA | -1.04 ± 0.17 | -0.115 ± 0.19
20 | UAGUAGCAAUAUUACGGACU | -0.0123 ± 0.18 | 0.484 ± 0.15
21 | UAGUAGCAAUAUUACGGAGA | -3.56 ± 0.47 | -3.35 ± 0.35
22 | UAGUAGCAAUAUUACGGAUA | -2.7 ± 0.26 | -0.444 ± 0.14
23 | UAGUAGCAAUAUUACGGCAG | -1.01 ± 0.11 | -1.57 ± 0.14
24 | UAGUAGCAAUAUUACGGCCC | -2.09 ± 0.17 | -1.92 ± 0.37
25 | UAGUAGCAAUAUUACGGCUC | -1.01 ± 0.098 | 0.206 ± 0.14

Row | Sequence | self-splicing fitness (ln) (30 °C) | self-splicing fitness (ln) (37 °C)
26 | UAGUAGCAAUAUUACGGGCG | -0.694 ± 0.14 | -0.395 ± 0.12
27 | UAGUAGCAAUAUUACGGGGU | -3 ± 0.17 | -2.89 ± 0.22
28 | UAGUAGCAAUAUUACGGUGA | -2.29 ± 0.42 | -1.46 ± 0.24
29 | UAGUAGCAAUAUUACGGUUG | -0.955 ± 0.056 | -0.642 ± 0.07
30 | UAGUAGCAAUAUUACGUAUG | -1.82 ± 0.1 | -0.711 ± 0.12
31 | UAGUAGCAAUAUUACGUCGU | -3.76 ± 0.38 | -2.81 ± 0.21
32 | UAGUAGCAAUAUUACGUGUU | -3.65 ± 0.21 | -1.95 ± 0.15
33 | UAGUAGCAAUAUUACGUUAA | -2.34 ± 0.17 | -2.06 ± 0.17
34 | UAGUAGCAAUAUUACGUUAC | -3.78 ± 0.2 | -2.97 ± 0.23
35 | UAGUAGCAAUAUUACGUUUC | -1.16 ± 0.38 | -1.5 ± 0.41
36 | UAUAAGCAAUAUUACGAACA | -0.73 ± 0.15 | -0.241 ± 0.21
37 | UAUAAGCAAUAUUACGAACC | -2.5 ± 0.41 | -1.51 ± 0.32
38 | UAUAAGCAAUAUUACGAGUU | -2.72 ± 0.15 | -1.11 ± 0.15
39 | UAUAAGCAAUAUUACGAUUG | -1.48 ± 0.11 | -0.744 ± 0.13
40 | UAUAAGCAAUAUUACGCAUA | -1.92 ± 0.12 | -0.585 ± 0.12
41 | UAUAAGCAAUAUUACGCGAG | -1.39 ± 0.12 | -1.02 ± 0.11
42 | UAUAAGCAAUAUUACGCUGA | -1.96 ± 0.22 | -1.53 ± 0.23
43 | UAUAAGCAAUAUUACGGAAC | -4.02 ± 0.42 | -2.94 ± 0.41
44 | UAUAAGCAAUAUUACGGCAU | -0.623 ± 0.077 | -0.223 ± 0.098
45 | UAUAAGCAAUAUUACGGCCA | -0.385 ± 0.15 | 0.169 ± 0.22
46 | UAUAAGCAAUAUUACGGCGC | -1.25 ± 0.11 | -1.35 ± 0.14
47 | UAUAAGCAAUAUUACGGGCC | -2.99 ± 0.31 | 
48 | UAUAAGCAAUAUUACGGGGC | -2.29 ± 0.45 | 
49 | UAUAAGCAAUAUUACGGUCC | -0.922 ± 0.44 | 
50 | UAUAAGCAAUAUUACGGUGC | -2.46 ± 0.19 | -3.09 ± 0.3

Row | Sequence | self-splicing fitness (ln) (30 °C) | self-splicing fitness (ln) (37 °C)
51 | UAUAAGCAAUAUUACGUACG | -0.621 ± 0.13 | -0.0322 ± 0.15
52 | UAUAAGCAAUAUUACGUAUU | -4.41 ± 0.37 | -1.61 ± 0.18
53 | UAUAAGCAAUAUUACGUCAA | -2.24 ± 0.14 | -0.698 ± 0.11
54 | UAUAAGCAAUAUUACGUCGG | -0.782 ± 0.076 | -0.0864 ± 0.098
55 | UAUAAGCAAUAUUACGUUAA | -2.59 ± 0.15 | -1.5 ± 0.14
56 | UAUAAGCAAUAUUACGUUGU | -4.3 ± 0.2 | -2.55 ± 0.17
57 | UAUCAGCAAUAUUACGAAUG | 0.00149 ± 0.052 | 0.0362 ± 0.07
58 | UAUCAGCAAUAUUACGAGAG | -3.03 ± 0.15 | -0.0372 ± 0.092
59 | UAUCAGCAAUAUUACGCCAA | -1.34 ± 0.19 | -0.351 ± 0.2
60 | UAUCAGCAAUAUUACGCCGA | -1.32 ± 0.12 | -0.34 ± 0.18
61 | UAUCAGCAAUAUUACGCGAU |  | -2.49 ± 0.23
62 | UAUCAGCAAUAUUACGCGUA | -0.493 ± 0.1 | 0.0959 ± 0.12
63 | UAUCAGCAAUAUUACGGCAU | -1.14 ± 0.071 | -0.0824 ± 0.075
64 | UAUCAGCAAUAUUACGGCCA | 0.201 ± 0.12 | 0.167 ± 0.11
65 | UAUCAGCAAUAUUACGUAAA | -0.89 ± 0.068 | 0.233 ± 0.1
66 | UAUCAGCAAUAUUACGUAAC | -1.48 ± 0.14 | -0.246 ± 0.16
67 | UAUCAGCAAUAUUACGUAAU | -1.62 ± 0.073 | -0.784 ± 0.077
68 | UAUCAGCAAUAUUACGUACA | -0.141 ± 0.058 | -0.199 ± 0.07
69 | UAUCAGCAAUAUUACGUCGG | -1.02 ± 0.064 | 0.0416 ± 0.082
70 | UAUCAGCAAUAUUACGUGAC | -0.555 ± 0.1 | -1.45 ± 0.15
71 | UAUCAGCAAUAUUACGUGCC | -4.21 ± 0.34 | -1.95 ± 0.16
72 | UAUCAGCAAUAUUACGUGGG | -1.97 ± 0.1 | -1.77 ± 0.13
73 | UAUCAGCAAUAUUACGUGUU | -3.36 ± 0.14 | -2.83 ± 0.12
74 | UAUGAGCAAUAUUACGAAGA | -2.69 ± 0.44 | -1.81 ± 0.2
75 | UAUGAGCAAUAUUACGACCA | -2.25 ± 0.16 | -2.07 ± 0.18

Row | Sequence | self-splicing fitness (ln) (30 °C) | self-splicing fitness (ln) (37 °C)
76 | UAUGAGCAAUAUUACGAGGG | -3.93 ± 0.42 | -2.66 ± 0.29
77 | UAUGAGCAAUAUUACGCAUA |  | -2.21 ± 0.42
78 | UAUGAGCAAUAUUACGCCAG | -2.96 ± 0.4 | -1.21 ± 0.38
79 | UAUGAGCAAUAUUACGCCCG | -2.23 ± 0.3 | 0.00889 ± 0.21
80 | UAUGAGCAAUAUUACGCGCA | -1.68 ± 0.12 | -0.965 ± 0.15
81 | UAUGAGCAAUAUUACGCUAG | -3.34 ± 0.41 | 
82 | UAUGAGCAAUAUUACGCUGG | -2.71 ± 0.33 | -1.79 ± 0.38
83 | UAUGAGCAAUAUUACGGAUC | -3.84 ± 0.44 | -2.19 ± 0.41
84 | UAUGAGCAAUAUUACGGCCU | -4 ± 0.37 | 
85 | UAUGAGCAAUAUUACGGCGA | -0.815 ± 0.17 | -0.45 ± 0.16
86 | UAUGAGCAAUAUUACGGGAG | -1.86 ± 0.19 | -2.95 ± 0.24
87 | UAUGAGCAAUAUUACGGUGG | -1.85 ± 0.22 | -2.72 ± 0.37
88 | UAUGAGCAAUAUUACGGUUA | -1.76 ± 0.15 | 0.43 ± 0.12
89 | UAUGAGCAAUAUUACGUACA | -2.39 ± 0.18 | -1.62 ± 0.23
90 | UAUGAGCAAUAUUACGUACG | -2.35 ± 0.19 | -1.34 ± 0.21
91 | UAUGAGCAAUAUUACGUAGU | -3.67 ± 0.28 | -1.99 ± 0.21
92 | UAUGAGCAAUAUUACGUAUG | -2.35 ± 0.22 | -1.58 ± 0.27
93 | UAUGAGCAAUAUUACGUCAA |  | -2.59 ± 0.38
94 | UAUGAGCAAUAUUACGUCUC | -2.45 ± 0.25 | 
95 | UAUGAGCAAUAUUACGUGGA | -3.52 ± 0.35 | -3.47 ± 0.43
96 | UAUUAGCAAUAUUACGAAAG | -2.42 ± 0.37 | 
97 | UAUUAGCAAUAUUACGAAUA | -0.842 ± 0.38 | -0.292 ± 0.38
98 | UAUUAGCAAUAUUACGACUU | -0.468 ± 0.13 | -0.537 ± 0.14
99 | UAUUAGCAAUAUUACGAGAG | -3.48 ± 0.26 | -3.11 ± 0.29
